Experimental data taken from patent US7662583B2, “Bioreactor containing cells expressing glycosyltransferase nucleic acids isolatable from Arabidopsis” (The University of York, priority 2003, dated 2010).

Assay: UGT enzyme reaction with quercetin (recombinant UGTs, HPLC)
Assay type: biochemical, Arabidopsis
Conditions: 0.5 mM quercetin, 5 mM UDP-glucose, 30° C.; for Specific activity (nkat/mg protein) 3-O-glc: quercetin glucosylated at 3-OH; for Specific activity (nkat/mg protein) 3′-O-glc: quercetin glucosylated at 3′-OH; for Specific activity (nkat/mg protein) 4′-O-glc: quercetin glucosylated at 4′-OH; for Specific activity (nkat/mg protein) 7-O-glc: quercetin glucosylated at 7-OH
Procedure: The assay mix (200 μl) contained 2 μg of recombinant protein, 100 mM Tris-HCl, pH 7.0, 5 mM UDP-glucose 1.4 mM 2-mercaptoethanol, and 0.5 mM of quercetin. The reaction was carried out at 30° C. for 1 h, and was quick-frozen and stored at −20° C. prior to the reverse-phase HPLC analysis
Reverse-phase HPLC (SpectraSYSTEM HPLC systems and UV6000LP Photodiode Array Detector, ThermoQuest) analysis was carried using a Columbus 5μ C18 column (250×4.60 mm, PHENOMENEX). Quercetin glucosides were separated from the aglycone by a linear gradient of 10-75% acetonitrile in H2O (all solution contained 0.1% trifluoroacetic acid) at 1 ml/mm over 20 mm and monitored at 370 nm. Cytokinin glucosides were separated from their aglycone by a liner gradient of 10-100% methanol in H2O (for N6-isopentenyladenine (iP), N6-benzyladenine and kinetin) or 10-60% methanol in H2O (for trans-zeatin and dihydrozeatin) at 1 ml/min over 20 mm. All solution contained 0.25% acetic acid and 0.04% triethylamine, trifluoroacetic acid. The separation was monitored at 206 nm and 252 nm. The identity of the products was confirmed by comparison with authentic gluco sides.
The activity of Arabidopsis recombinant UGTs towards quercetin was determined using the platform developed previously^15.

| Molecule | Specific activity (nkat/mg protein) 3-O-glc | Specific activity (nkat/mg protein) 3′-O-glc | Specific activity (nkat/mg protein) 4′-O-glc | Specific activity (nkat/mg protein) 7-O-glc |
| --- | --- | --- | --- | --- |
| UGT76E1: Arabidopsis recombinant glycosyltransferase (protein, UniProt Q9LTH3 1-453, looked up) UDP-glycosyltransferase 76E1: MEELGVKRRIVLVPVPAQGHVTPIMQLGKALYSKGFSITVVLTQYNRVSSSKDFSDFHFLTIPGSLTESDLKNLGPFKFLFKLNQICEASFKQCIGQLLQEQGNDIACVVYDEYMYFSQAAVKEFQLPSVLFSTTSATAFVCRSVLSRVNAESFLLDMKDPKVSDKEFPGLHPLRYKDLPTSAFGPLESILKVYSETVNIRTASAVIINSTSCLESSSLAWLQKQLQVPVYPIGPLHIAASAPSSLLEEDRSCLEWLNKQKIGSVIYISLGSLALMETKDMLEMAWGLRNSNQPFLWVIRPGSIPGSEWTESLPEEFSRLVSERGYIVKWAPQIEVLRHPAVGGFWSHCGWNSTLESIGEGVPMICRPFTGDQKVNARYLERVWRIGVQLEGELDKGTVERAVERLIMDEEGAEMRKRVINLKEKLQASVKSRGSSFSSLDNFVNSLKMMNFM | 0.02 nkat/mg protein | — (Activity lower than 0.02 nkat/mg protein has been considered as trace activity and is not shown in the Table.) | — (Activity lower than 0.02 nkat/mg protein has been considered as trace activity and is not shown in the Table.) | 0.08 nkat/mg protein |
| UGT71E8: Arabidopsis recombinant glycosyltransferase as printed in Table 1A; probably UGT71B8 of FIG. 1 (protein, UniProt Q9LSY4 1-480, looked up) UDP-glycosyltransferase 71B8: MNKFALVFVPFPILGHLKSTAEMAKLLVEQETRLSISIIILPLLSGDDVSASAYISALSAASNDRLHYEVISDGDQPTVGLHVDNHIPMVKRTVAKLVDDYSRRPDSPRLAGLVVDMFCISVIDVANEVSVPCYLFYTSNVGILALGLHIQMLFDKKEYSVSETDFEDSEVVLDVPSLTCPYPVKCLPYGLATKEWLPMYLNQGRRFREMKGILVNTFAELEPYALESLHSSGDTPRAYPVGPLLHLENHVDGSKDEKGSDILRWLDEQPPKSVVFLCFGSIGGFNEEQAREMAIALERSGHRFLWSLRRASRDIDKELPGEFKNLEEILPEGFFDRTKDKGKVIGWAPQVAVLAKPAIGGFVTHCGWNSILESLWFGVPIAPWPLYAEQKFNAFVMVEELGLAVKIRKYWRGDQLVGTATVIVTAEEIERGIRCLMEQDSDVRNRVKEMSKKCHMALKDGGSSQSALKLFIQDVTKYIA | 0.31 nkat/mg protein | — (Activity lower than 0.02 nkat/mg protein has been considered as trace activity and is not shown in the Table.) | 0.25 nkat/mg protein | — (Activity lower than 0.02 nkat/mg protein has been considered as trace activity and is not shown in the Table.) |
| UGT71C2: Arabidopsis recombinant glycosyltransferase (protein, UniProt O82382 1-474, looked up) UDP-glycosyltransferase 71C2: MAKQQEAELIFIPFPIPGHILATIELAKRLISHQPSRIHTITILHWSLPFLPQSDTIAFLKSLIETESRIRLITLPDVQNPPPMELFVKASESYILEYVKKMVPLVRNALSTLLSSRDESDSVHVAGLVLDFFCVPLIDVGNEFNLPSYIFLTCSASFLGMMKYLLERNRETKPELNRSSDEETISVPGFVNSVPVKVLPPGLFTTESYEAWVEMAERFPEAKGILVNSFESLERNAFDYFDRRPDNYPPVYPIGPILCSNDRPNLDLSERDRILKWLDDQPESSVVFLCFGSLKSLAASQIKEIAQALELVGIRFLWSIRTDPKEYASPNEILPDGFMNRVMGLGLVCGWAPQVEILAHKAIGGFVSHCGWNSILESLRFGVPIATWPMYAEQQLNAFTIVKELGLALEMRLDYVSEYGEIVKADEIAGAVRSLMDGEDVPRRKLKEIAEAGKEAVMDGGSSFVAVKRFIDGL | 0.16 nkat/mg protein | 0.03 nkat/mg protein | — (Activity lower than 0.02 nkat/mg protein has been considered as trace activity and is not shown in the Table.) | 0.24 nkat/mg protein |
| UGT73C6: Arabidopsis recombinant glycosyltransferase (protein, UniProt Q9ZQ95 1-495, looked up) UDP-glycosyltransferase 73C6: MAFEKNNEPFPLHFVLFPFMAQGHMIPMVDIARLLAQRGVLITIVTTPHNAARFKNVLNRAIESGLPINLVQVKFPYQEAGLQEGQENMDLLTTMEQITSFFKAVNLLKEPVQNLIEEMSPRPSCLISDMCLSYTSEIAKKFKIPKILFHGMGCFCLLCVNVLRKNREILDNLKSDKEYFIVPYFPDRVEFTRPQVPVETYVPAGWKEILEDMVEADKTSYGVIVNSFQELEPAYAKDFKEARSGKAWTIGPVSLCNKVGVDKAERGNKSDIDQDECLEWLDSKEPGSVLYVCLGSICNLPLSQLLELGLGLEESQRPFIWVIRGWEKYKELVEWFSESGFEDRIQDRGLLIKGWSPQMLILSHPSVGGFLTHCGWNSTLEGITAGLPMLTWPLFADQFCNEKLVVQILKVGVSAEVKEVMKWGEEEKIGVLVDKEGVKKAVEELMGESDDAKERRRRAKELGESAHKAVEEGGSSHSNITFLLQDIMQLAQSNN | 0.11 nkat/mg protein | — (Activity lower than 0.02 nkat/mg protein has been considered as trace activity and is not shown in the Table.) | 0.16 nkat/mg protein | 0.14 nkat/mg protein |
| UGT88A1: Arabidopsis recombinant glycosyltransferase, FIG. 4 (protein, listed as Arabidopsis thaliana) MGEEAIVLYPAPPIGHLVSMVELGKTILSKNPSLSIHIILVPPPYQPESTATYISSVSSSFPSITFHHLPAVTPYSSSSTSRHHHESLLLEILCFSNPSVHRTLFSLSRNFNVRAMIIDFFCTAVLDITADFTFPVYFFYTSGAACLAFSFYLPTIDETTPGKNLKDIPTVHIPGVPPMKGSDMPKAVLERDDEVYDVFIMFGKQLSKSSGIIINTFDALENRAIKAITEELCFRNIYPIGPLIVNGRIEDRNDNKAVSCLNWLDSQPEKSVVFLCFGSLGLFSKEQVIEIAVGLEKSGQRFLWVVRNPPELEKTELDLKSLLPEGFLSRTEDKGMVVKSWAPQVPVLNHKAVGGFVTHCGWNSILEAVCAGVPMVAWPLYAEQRFNRVMIVDEIKIAISMNESETGFVSSTEVEKRVQEIIGECPVRERTMAMKNAAELALTETGSSHTALTTLLQSWSPK | 0.41 nkat/mg protein | 0.19 nkat/mg protein | 0.76 nkat/mg protein | 0.19 nkat/mg protein |
| UGT73B5: Arabidopsis recombinant glycosyltransferase (protein, UniProt Q9ZQG4 1-484, looked up) UDP-glycosyltransferase 73B5: MNREVSERIHILFFPFMAQGHMIPILDMAKLFSRRGAKSTLLTTPINAKIFEKPIEAFKNQNPDLEIGIKIFNFPCVELGLPEGCENADFINSYQKSDSGDLFLKFLFSTKYMKQQLESFIETTKPSALVADMFFPWATESAEKLGVPRLVFHGTSFFSLCCSYNMRIHKPHKKVATSSTPFVIPGLPGDIVITEDQANVAKEETPMGKFMKEVRESETNSFGVLVNSFYELESAYADFYRSFVAKRAWHIGPLSLSNRELGEKARRGKKANIDEQECLKWLDSKTPGSVVYLSFGSGTNFTNDQLLEIAFGLEGSGQSFIWVVRKNENQGDNEEWLPEGFKERTTGKGLIIPGWAPQVLILDHKAIGGFVTHCGWNSAIEGIAAGLPMVTWPMGAEQFYNEKLLTKVLRIGVNVGATELVKKGKLISRAQVEKAVREVIGGEKAEERRLWAKKLGEMAKAAVEEGGSSYNDVNKFMEELNGRK | 11.58 nkat/mg protein | — (Activity lower than 0.02 nkat/mg protein has been considered as trace activity and is not shown in the Table.) | — (Activity lower than 0.02 nkat/mg protein has been considered as trace activity and is not shown in the Table.) | — (Activity lower than 0.02 nkat/mg protein has been considered as trace activity and is not shown in the Table.) |
| UGT71D1: Arabidopsis recombinant glycosyltransferase (protein, UniProt O82383 1-467, looked up) UDP-glycosyltransferase 71D1: MRNVELIFIPTPTVGHLVPFLEFARRLIEQDDRIRITILLMKLQGQSHLDTYVKSIASSQPFVRFIDVPELEEKPTLGSTQSVEAYVYDVIERNIPLVRNIVMDILTSLALDGVKVKGLVVDFFCLPMIDVAKDISLPFYVFLTTNSGFLAMMQYLADRHSRDTSVFVRNSEEMLSIPGFVNPVPANVLPSALFVEDGYDAYVKLAILFTKANGILVNSSFDIEPYSVNHFLQEQNYPSVYAVGPIFDLKAQPHPEQDLTRRDELMKWLDDQPEASVVFLCFGSMARLRGSLVKEIAHGLELCQYRFLWSLRKEEVTKDDLPEGFLDRVDGRGMICGWSPQVEILAHKAVGGFVSHCGWNSIVESLWFGVPIVTWPMYAEQQLNAFLMVKELKLAVELKLDYRVHSDEIVNANEIETAIRYVMDTDNNVVRKRVMDISQMIQRATKNGGSSFAAIEKFIYDVIGIKP | 4.19 nkat/mg protein | — (Activity lower than 0.02 nkat/mg protein has been considered as trace activity and is not shown in the Table.) | — (Activity lower than 0.02 nkat/mg protein has been considered as trace activity and is not shown in the Table.) | — (Activity lower than 0.02 nkat/mg protein has been considered as trace activity and is not shown in the Table.) |
